As a reminder, the Kd is the constant that tells how readily two partners part at equilibrium. Low readings indicate higher affinity, high ones lower affinity. As a reminder, the koff is a measure of how fast the partners let go of each other. Lower therefore signals a long-lived complex. One may read the kon as the second-order rate constant of association. As usually defined, the EC50 is the concentration that produces a half-maximal response.

Data on 23 molecules can be found in patent publication US20250154277A1 (CONCEPT TO MEDICINE BIOTECH, published 2025).

B1: 393E9_hVH3_hVL1 (antibody, V domains shown)
VH: QVQLVESGGGVVQPGGSLRLSCAASGFTFTDYYMSWVRQAPGKGLEWVGFIRNKGNGYTTENSASVKGRFTISRDNSKSTLYLQMNSLRAEDTAVYYCARYRGNPHYAMDYWGQGTLVTVSS
VL: DIVLTQSPDSLAVSLGERATINCRASESVEFYGTSFLQWYQQKPGQPPKLLIYGASNVESGVPDRFSGSGSGTDFTLTISSLQAEDIAVYFCQQSRKVPSTFGGGTKVEIK
notes: humanized
B2: 393E9_hVH2_hVL1 (antibody, V domains shown)
VH: B1 VH with Q1E, V11L, V12I, A40P
VL: B1 VL
notes: humanized
B3: 393E9_hVH1_hVL1 (antibody, V domains shown)
VH: B1 VH with Q1E, V11L
VL: B1 VL
notes: humanized
B4: 393E9_hVH1_hVL3 (antibody, V domains shown)
VH: B1 VH with Q1E, V11L
VL: DIQLTQSPSSLSASVGDRVTITCRASESVEFYGTSFLQWYQQKPGKAPKLLIYGASNVESGVPSRFSGSGSGTDFTLTISSLQPEDIATYFCQQSRKVPSTFGGGTKVEIK
notes: humanized
B5: 393E9_hVH1_hVL2 (antibody, V domains shown)
VH: B1 VH with Q1E, V11L
VL: EIVLTQSPATLSVSPGERATLSCRASESVEFYGTSFLQWYQQKPGQAPRLLIYGASNVESGIPARFSGSGSGTEFTLTISSLQSEDIAVYFCQQSRKVPSTFGGGTKVEIK
notes: humanized
B6: 393E9_hVH3_hVL2 (antibody, V domains shown)
VH: B1 VH
VL: B5 VL
notes: humanized
B7: 393E9_hVH6_hVL4 (antibody, V domains shown)
VH: B1 VH with Q1E, V11L, S77A, T80S
VL: DIVLTQSPLSLPVTPGEPASISCRASESVEFYGTSFLQWYLQKPGQSPQLLIYGASNVESGVPDRFSGSGSGTDFTLKISRVEAEDIGVYFCQQSRKVPSTFGGGTKVEIK
notes: humanized
B8: 393E9_hVH5_hVL2 (antibody, V domains shown)
VH: B1 VH with Q1E, V11L, G16R, A23T, T80I, R89K, A90T
VL: B5 VL
notes: humanized
B9: 393E9_hVH5_hVL1 (antibody, V domains shown)
VH: B1 VH with Q1E, V11L, G16R, A23T, T80I, R89K, A90T
VL: B1 VL
notes: humanized
B10: 393E9_hVH4_hVL1 (antibody, V domains shown)
VH: B1 VH with Q1E, V11L, T80S, R89K, A90T
VL: B1 VL
notes: humanized
B11: 393E9_hVH4_hVL4 (antibody, V domains shown)
VH: B1 VH with Q1E, V11L, T80S, R89K, A90T
VL: B7 VL
notes: humanized
B12: 393E9_hVH6_hVL1 (antibody, V domains shown)
VH: B1 VH with Q1E, V11L, S77A, T80S
VL: B1 VL
notes: humanized
B13: Hu14G12-4 (antibody, V domains shown)
VH: EVQLVQSGAEVKKPGATVKISCKVSGYAFSSSWMNWVQQAPGKGLEWMGRIYREDGHTNYNGKFKGRVTITADTSTDTAYMELSSLRSEDTAVYYCATGGAMDYWGQGTLVTVSS
VL: DIQMTQSPSSLSASVGDRVTISCRASQDISNYLNWYQQKPGKTVKLLIYYTSRLHSGVPSRFSGSGSGTDYTFTISSLQPEDIATYFCQQDNTLPWTFGGGTKLEIK
notes: humanized
B14: Hu14G12-15 (antibody, V domains shown)
VH: B13 VH with V24A, Q38K, M48I, V68A, D77T, T91S, Y95F, T98N
VL: B13 VL with T43A, Y71F
notes: humanized
B15: Hu14G12-9 (antibody, V domains shown)
VH: B13 VH with Q38K, M48I, V68A, D77T, Y95F, T98N
VL: B13 VL with S22T, T43A, V44P, Y71F, F87Y
notes: humanized
B16: Hu14G12-18 (antibody, V domains shown)
VH: QVQLVQSGAEVKKPGSSVKVSCKASGGTFSSSWMNWVKQAPGQGLEWIGRIYREDGHTNYNGKFKGKATLTADKSTSTAYMELSSLRSEDTAVYFCANGGAMDYWGQGTTVTVSS
VL: B13 VL with S22T, T43V, V44P, F73L, I83V
notes: humanized
B17: Hu14G12-7 (antibody, V domains shown)
VH: B13 VH with M48I, Y95F, T98N
VL: B13 VL with T43A, Y71F
notes: humanized
B18: Hu14G12-13 (antibody, V domains shown)
VH: B13 VH with V24A, Q38K, M48I, V68A, D77T, T91S, Y95F, T98N
VL: B13 VL with S22T, T43A, V44P, Y71F, F87Y
notes: humanized
B19: Hu14G12-5 (antibody, V domains shown)
VH: B13 VH with M48I, Y95F, T98N
VL: B13 VL with S22T, T43A, V44P, Y71F, F87Y
notes: humanized
B20: Hu14G12-8 (antibody, V domains shown)
VH: B13 VH with M48I, Y95F, T98N
VL: B13 VL
notes: humanized
B21: Hu14G12-16 (antibody, V domains shown)
VH: B13 VH with V24A, Q38K, M48I, V68A, D77T, T91S, Y95F, T98N
VL: B13 VL
notes: humanized
B22: Hu14G12-11 (antibody, V domains shown)
VH: B13 VH with Q38K, M48I, V68A, D77T, Y95F, T98N
VL: B13 VL with T43A, Y71F
notes: humanized
B23: Hu14G12-12 (antibody, V domains shown)
VH: B13 VH with Q38K, M48I, V68A, D77T, Y95F, T98N
VL: B13 VL
notes: humanized

Changes are numbered by the printed parent chain.

The target of the first experiment is T1, human 5T4-His protein (human, UniProt Q13641 32-355).
T1 construct: also called recombinant 5T4 protein (human 5T4-his tag); human 5T4 protein; not shown: His tag
T1 sequence (looked up): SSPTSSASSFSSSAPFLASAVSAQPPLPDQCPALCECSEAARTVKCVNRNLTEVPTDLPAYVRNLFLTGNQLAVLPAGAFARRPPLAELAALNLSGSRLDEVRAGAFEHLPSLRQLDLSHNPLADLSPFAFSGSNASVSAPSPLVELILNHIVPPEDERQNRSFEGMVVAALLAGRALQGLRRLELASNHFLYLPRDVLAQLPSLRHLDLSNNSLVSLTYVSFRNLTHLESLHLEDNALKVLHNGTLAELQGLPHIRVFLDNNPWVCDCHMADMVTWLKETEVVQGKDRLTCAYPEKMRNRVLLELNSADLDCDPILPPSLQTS
Nature of the experiment: SPR Biacore, Protein A capture. The procedure:
The binding of the 393E9 humanized antibodies to recombinant 5T4 protein (human 5T4-his tag) was tested with Biacore using a capture method. The mAbs were captured using Protein A chip. A serial dilution of human 5T4-his tag protein was injected over captured antibody for 3 mins at a flow rate of 30 μl/min. The antigen was allowed to dissociate for 280-800 s. All the experiments were carried out on a Biacore T200. Data analysis was carried out using the Biacore T200 evaluation software.
In turn, B1 displayed a Kd of 0.506 nM, a koff of 0.000108 s⁻¹ and a kon of 213000 M⁻¹ s⁻¹.
The corresponding values for B2 are 0.547 nM, 0.000104 s⁻¹ and 190000 M⁻¹ s⁻¹.

The target of a further experiment is T1, human 5T4-His protein. Nature of the experiment: ELISA, coated 5T4-His. On the procedure: To evaluate the binding activity of 393E9 humanized antibodies to human 5T4, the 393E9 chimeric antibody (393E9-C) along with 393E9 humanized mAbs were subjected to ELISA test.
Briefly, microtiter plates were coated with human 5T4-His protein at 1 μg/ml in PBS, 100 μl/well at 4° C. overnight, then blocked with 150 μl/well of 1% BSA. 4-fold dilutions of antibodies starting from 20 nM were added to each well and incubated for 1 hour at 37° C. The plates were washed with PBS/Tween and then incubated with Goat Anti-Human IgG-HRP for 30 mins at 37° C. After washing, the plates were developed with TMB substrate and analyzed by spectrophotometer at OD 450 nm. As shown in FIG. 12 and Table 9, most of the humanized antibodies bound to human 5T4 with high activity.
For orientation: In an ELISA, binding on a coated surface is turned into a signal by an enzyme label.
Molecule B3 came in with a 50% effective concentration (EC50) of 0.18 nM.
In turn, B4 displayed an EC50 of 0.085 nM.
As to B5, the midpoint of the response, the EC50, lay at 0.16 nM.
B6 came in with an EC50 of 0.2 nM.
Consider B1, for which the EC50 was found to be 0.16 nM.
The molecule B7 returned an EC50 of 0.14 nM.
In turn, B8 came in with an EC50 of 0.27 nM.
The same measure, in the same setting: then B9, with 0.16 nM; and B10, with 0.13 nM; and B2, with 0.17 nM.
The molecule B11 returned an EC50 of 0.16 nM.
Molecule B12 returned an EC50 of 0.11 nM.

A further experiment deals with T1, human 5T4-His protein. As to the kind of experiment: ELISA, coated 5T4-His. The source holds these as a separate data set. On the procedure:
To evaluate the binding activity of 14G12 humanized antibodies to human 5T4, the 14G12 chimeric antibody along with 14G12 humanized mAbs were subjected to ELISA test.
Briefly, microtiter plates were coated with human 5T4-His protein at 1 μg/ml in PBS, 100 μl/well at 4° C. overnight, then blocked with […]. Serial dilutions of antibodies were added to each well and incubated for 1 hour at 37° C. The plates were washed with PBS/Tween and then incubated with Goat Anti-Human IgG-HRP for 30 mins at 37° C. After washing, the plates were developed with TMB substrate and analyzed by spectrophotometer at OD 450 nm. As shown in FIG. 10 and Table 6, most of the humanized antibodies bound to human 5T4 at high activity.
Take B13: the response was half-maximal at 0.019 µg/mL (EC50).
In the case of B14, the EC50 amounted to 0.014 µg/mL.
As to B15, a half-maximal response (EC50) required 0.012 µg/mL.
As to B16, the EC50 was determined as 0.31 µg/mL.
On the same count and under the same terms, then B17, with 0.015 µg/mL; and B18, with 0.018 µg/mL; and B19, with 0.014 µg/mL.
B20 yielded an EC50 of 0.015 µg/mL.
On to B21, for which the EC50 turned out to be 0.017 µg/mL.
In the case of B22, the EC50 is 0.015 µg/mL. This EC50 and that of the molecule before are within 1.5-fold of each other.
B23 gave an EC50 of 0.019 µg/mL.

The next experiment has as its target T1, human 5T4-His protein. Nature of the experiment: SPR Biacore, Protein A capture. This is another data set of the same source. The procedure:
The binding of the 14G12 humanized antibodies to recombinant 5T4 protein (human 5T4-his tag) was tested with Biacore using a capture method. The mAbs were captured using Protein A chip. Serial dilution of human 5T4-his tag protein was injected over captured antibody for 120 s-180 s at a flow rate of 30 μl/min. The antigen was allowed to dissociate for 360 s-1000 s. All the experiments were carried out on a Biacore T200. Data analysis was carried out using the Biacore T200 evaluation software.
(In general: In SPR one partner is held on a chip, and binding of the other changes the refractive index at the surface.)
Turning to B13, binding was put at a Kd of 12.5 nM, the koff is 0.00267 s⁻¹ and the association rate constant (kon) came to 214000 M⁻¹ s⁻¹.
The corresponding values for B14 are 3.19 nM, 0.000837 s⁻¹ and 262000 M⁻¹ s⁻¹.
The corresponding values for B15 are 5.31 nM, 0.00107 s⁻¹ and 202000 M⁻¹ s⁻¹.
In the case of B16, the affinity, expressed as Kd, was 4.55 nM; the koff was determined as 0.00178 s⁻¹; the kon came to 392000 M⁻¹ s⁻¹.
The corresponding values for B17 are 2.52 nM, 0.000846 s⁻¹ and 336000 M⁻¹ s⁻¹.
In the case of B18, the Kd came to 6.12 nM, the koff came to 0.00121 s⁻¹ and the kon worked out at 198000 M⁻¹ s⁻¹.
In turn, B19 came in with a Kd of 5.88 nM, a koff of 0.00146 s⁻¹ and a kon of 248000 M⁻¹ s⁻¹.
In turn, B20 registered a Kd of 1.36 nM, a dissociation rate constant (koff) of 0.000464 s⁻¹ and a kon of 340000 M⁻¹ s⁻¹.
As to B21, the affinity, expressed as Kd, was 1.85 nM; the off-rate constant (koff) came to 0.000499 s⁻¹; the kon is 269000 M⁻¹ s⁻¹.
Turning to B22, binding was characterised by a dissociation constant (Kd) of 2.17 nM, the koff was found to be 0.000523 s⁻¹ and the kon is 241000 M⁻¹ s⁻¹.
Molecule B23 came in with a Kd of 2.39 nM, a koff of 0.000655 s⁻¹ and a kon of 274000 M⁻¹ s⁻¹.
